In publication PMC12226651:

Legend:
[1] = biological target: dynamic microtubules grown from purified bovine brain tubulin (bovine) (UniProt Q6B856); assay: optical trap rupture force assay; kinetochores purified with benzonase, held on beads by anti-penta-His antibody via Dsn1-6His-3M3DK, attached to the tip of dynamic microtubules grown from coverslip-anchored seeds; BRB80 growth buffer, 23 °C; force raised at 0.25 pN/s until detachment
[2] = biological target: dynamic microtubules grown from purified bovine brain tubulin (bovine) (UniProt Q6B856); assay: optical trap rupture force assay; kinetochores purified without benzonase, held on beads by anti-penta-His antibody via Dsn1-6His-3M3DK, attached to the tip of dynamic microtubules grown from coverslip-anchored seeds; BRB80 growth buffer, 23 °C; force raised at 0.25 pN/s until detachment

| median rupture force [1] | median rupture force [2] | Substance |
| --- | --- | --- |
| 6.4 pN | 7.5 pN | K. marxianus kinetochores purified via Dsn1-6His-3M3DK (from UniProt A0ABX6F0Z3 1-547) (complex) |
|  | 7.2 pN | S. cerevisiae kinetochores purified via Dsn1-6His-3M3DK (from UniProt P40568 1-576) (complex) |
